According to the RNAGym collection of RNA variant scans (doi:10.1093/nar/gkz1192):

B1: CPEB3 Ribozyme (parent)
chain: UAACAGGGGGCCACAGCAGAAGCGUUCACGUCGCAGCCCCUGUCAGAUUCUGGUGAAUCUGCGAAUUCUGCUGUAUAUCUC

Variants of: B1
Test: self-cleavage, relative activity (ratio to wild type); higher = more cleavage; in vitro, sequencing
In short: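 Barcoded CPEB3 ribozyme mutants, produced by rounds of error-prone PCR, self-cleaved while being transcribed with T7 RNA polymerase for 5 hours at 37°C and during a subsequent 15 min DNase I step before EDTA was added. Sequencing of template-switched cDNA on Illumina gave cleaved and total reads, and DNA sequencing assigned barcodes to variants. Each variant's relative activity is its cleaved/total read fraction divided by the unmutated ribozyme's fraction, averaged across three batches. A variant needed a minimum of 5 reads.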

In order of rising self-cleavage:
1. UAACAGGGGGCCACAGCAGAAGCGUUCACGUCGCAGCCCCUGUCAGAUUCAGGUGAAUCUGCGAUUUCUGCUGUAUAUCUC  0.21
2. UAACAGGGGGCCACAGCAGAAGCGUUCACGUCGCAGCCCCUGUCAGAUUCAGGUGAAUCUGAGAAUUCUGCUGUAUAUCUC  0.22
3. UAACAGGGGGCCACAGCAGAAGCGUUCACGUCGCAGCCCCUGUCAGAUUUUGGUGAAUCUGCGAAAUCUGCUGUAUAUCUC  0.22
4. UAACAGGGGGCCACAGCAGAAGCGUUCACGUCGCAGCCCCUGUCAGAUUCAGGUGAAUCUGGGAAUUCUGCUGUAUAUCUC  0.23
5. UAACAGGGGGCCACAGCAGAAGCGUUCACGUCGCAGCCCCUGUCAGAUUCAGGUGAAUCUGUGAAUUCUGCUGUAUAUCUC  0.25
6. UAACAGGGGGCCACAGCAGAAGCGUUCACGUCGCAGCCCCUGUCAGAUUUUGGUGAAUCUGCGAAUUCUGCAGUAUAUCUC  0.28
7. UAACAGGGGGCCACAGCAGAAGCGUUCACGUCGCAGCCCCUGUCAGAUUCAGGUGAAACUGCGAAUUCUGCUGUAUAUCUC  0.3
8. UAACAGGGGGCCACAGCAGAAGCGUUCACGUCGCAGCCCCUGUCAGAUUUUGGUGAAUCUGCGAAUCCUGCUGUAUAUCUC  0.31
9. UAACAGGGGGCCACAGCAGAAGCGUUCACGUCGCAGCCCCUGUCAGAUUUUGGUGAACCUGCGAAUUCUGCUGUAUAUCUC  0.35
10. UAACAGGGGGCCACAGCAGAAGCGUUCACGUCGCAGCCCCUGUCAGAUUCAGGUGAAUCUGCGAAUCCUGCUGUAUAUCUC  0.4
11. UAACAGGGGGCCACAGCAGAAGCGUUCACGUCGCAGCCCCUGUCAGAUUCAGGUGAAUCUGCGAAUUAUGCUGUAUAUCUC  0.4
12. UAACAGGGGGCCACAGCAGAAGCGUUCACGUCGCAGCCCCUGUCAGAUUUUGGUGAAUCUGCGAAUUCCGCUGUAUAUCUC  0.41
13. UAACAGGGGGCCACAGCAGAAGCGUUCACGUCGCAGCCCCUGUCAGAUUCAGGUGAAUCUGCGAACUCUGCUGUAUAUCUC  0.42
14. UAACAGGGGGCCACAGCAGAAGCGUUCACGUCGCAGCCCCUGUCAGAUUCAGGGGAAUCUGCGAAUUCUGCUGUAUAUCUC  0.43
15. UAACAGGGGGCCACAGCAGAAGCGUUCACGUCGCAGCCCCUGUCAGAUUCAGGUGAAUCUGCGAAUGCUGCUGUAUAUCUC  0.43
16. UAACAGGGGGCCACAGCAGAAGCGUUCACGUCGCAGCCCCUGUCAGAUUUUGGUGAAUCUGCGAACUCUGCUGUAUAUCUC  0.45
17. UAACAGGGGGCCACAGCAGAAGCGUUCACGUCGCAGCCCCUGUCAGAUUCAGGUGAAUCUGCGUAUUCUGCUGUAUAUCUC  0.46
18. UAACAGGGGGCCACAGCAGAAGCGUUCACGUCGCAGCCCCUGUCAGAUUCAGGUGAAUCUGCGAGUUCUGCUGUAUAUCUC  0.48
19. UAACAGGGGGCCACAGCAGAAGCGUUCACGUCGCAGCCCCUGUCAGAUUCAGGUGGAUCUGCGAAUUCUGCUGUAUAUCUC  0.5
20. UAACAGGGGGCCACAGCAGAAGCGUUCACGUCGCAGCCCCUGUCAGAUUCAGGUGAAUCUGCGAAAUCUGCUGUAUAUCUC  0.51
21. UAACAGGGGGCCACAGCAGAAGCGUUCACGUCGCAGCCCCUGUCAGAUUCAGGUGAAUCUGCGCAUUCUGCUGUAUAUCUC  0.51
22. UAACAGGGGGCCACAGCAGAAGCGUUCACGUCGCAGCCCCUGUCAGAUUCAGGUGAUUCUGCGAAUUCUGCUGUAUAUCUC  0.53
23. UAACAGGGGGCCACAGCAGAAGCGUUCACGUCGCAGCCCCUGUCAGAUUCAGGUGAACCUGCGAAUUCUGCUGUAUAUCUC  0.54
24. UAACAGGGGGCCACAGCAGAAGCGUUCACGUCGCAGCCCCUGUCAGAUUUUGGUGAAUCUACGAAUUCUGCUGUAUAUCUC  0.55
25. UAACAGGGGGCCACAGCAGAAGCGUUCACGUCGCAGCCCCUGUCAGAUUCAGGUGAGUCUGCGAAUUCUGCUGUAUAUCUC  0.56
26. UAACAGGGGGCCACAGCAGAAGCGUUCACGUCGCAGCCCCUGUCAGAUUCAGGUGAAUCUGCGAAUACUGCUGUAUAUCUC  0.59
27. UAACAGGGGGCCACAGCAGAAGCGUUCACGUCGCAGCCCCUGUCAGAUUCAGGUGAAUCCGCGAAUUCUGCUGUAUAUCUC  0.59
28. UAACAGGGGGCCACAGCAGAAGCGUUCACGUCGCAGCCCCUGUCAGAUUCAGGUGAAUCUGCGAAUUCUACUGUAUAUCUC  0.61
29. UAACAGGGGGCCACAGCAGAAGCGUUCACGUCGCAGCCCCUGUCAGAUUCAGGUGAAUCUGCGAAUUCAGCUGUAUAUCUC  0.64
30. UAACAGGGGGCCACAGCAGAAGCGUUCACGUCGCAGCCCCUGUCAGAUUCAGGUGAAUCAGCGAAUUCUGCUGUAUAUCUC  0.64
31. UAACAGGGGGCCACAGCAGAAGCGUUCACGUCGCAGCCCCUGUCAGAUUCAGGUGAAUCUGCGAAUUCCGCUGUAUAUCUC  0.67
32. UAACAGGGGGCCACAGCAGAAGCGUUCACGUCGCAGCCCCUGUCAGAUUCAGGUGUAUCUGCGAAUUCUGCUGUAUAUCUC  0.68
33. UAACAGGGGGCCACAGCAGAAGCGUUCACGUCGCAGCCCCUGUCAGAUUCAGGUGAAUCUGCGAAUUCUGCAGUAUAUCUC  0.69
34. UAACAGGGGGCCACAGCAGAAGCGUUCACGUCGCAGCCCCUGUCAGAUUCAGGUGAAUCUGCGAAUUCUGUUGUAUAUCUC  0.73
35. UAACAGGGGGCCACAGCAGAAGCGUUCACGUCGCAGCCCCUGUCAGAUUUUGGGGAAUCUGCGAAUUCUGCUGUAUAUCUC  0.74
36. UAACAGGGGGCCACAGCAGAAGCGUUCACGUCGCAGCCCCUGUCAGAUUUUGGCGAAUCUGCGAAUUCUGCUGUAUAUCUC  0.77
37. UAACAGGGGGCCACAGCAGAAGCGUUCACGUCGCAGCCCCUGUCAGAUUUCGGUGAAUCUGCGAAUUCUGCUGUAUAUCUC  0.8
38. UAACAGGGGGCCACAGCAGAAGCGUUCACGUCGCAGCCCCUGUCAGAUUUUGGUGAAUCUGCUAAUUCUGCUGUAUAUCUC  0.82
39. UAACAGGGGGCCACAGCAGAAGCGUUCACGUCGCAGCCCCUGUCAGAUUCAGGUGAAUCUGCGAAUUCUGCUGUGUAUCUC  0.86
40. UAACAGGGGGCCACAGCAGAAGCGUUCACGUCGCAGCCCCUGUCAGAUUCAGGUGAAUCUGCGAAUUCUGCUGUAUGUCUC  0.93
41. UAACAGGGGGCCACAGCAGAAGCGUUCACGUCGCAGCCCCUGUCAGAUUCAGGUGAAUCUGCGGAUUCUGCUGUAUAUCUC  0.93
42. UAACAGGGGGCCACAGCAGAAGCGUUCACGUCGCAGCCCCUGUCAGAUUUUGGUGAAUCUGCGAAUUCUGCUGUAAAUCUC  0.94
43. UAACAGGGGGCCACAGCAGAAGCGUUCACGUCGCAGCCCCUGUCAGAUUUUGGUGAAUCUGCGAAUUCUGCUGUAUACCUC  0.97
44. UAACAGGGGGCCACAGCAGAAGCGUUCACGUCGCAGCCCCUGUCAGAUUUUGGUGAAUCUGCGAAUUCUGCUGUACAUCUC  0.98
45. UAACAGGGGGCCACAGCAGAAGCGUUCACGUCGCAGCCCCUGUCAGAUUUUAGUGAAUCUGCGAAUUCUGCUGUAUAUCUC  0.99
46. UAACAGGGGGCCACAGCAGAAGCGUUCACGUCGCAGCCCCUGUCAGAUUCAGGUGAAUCUGCAAAUUCUGCUGUAUAUCUC  1
47. UAACAGGGGGCCACAGCAGAAGCGUUCACGUCGCAGCCCCUGUCAGAUUCAGGUGAAUCUACGAAUUCUGCUGUAUAUCUC  1.01
48. UAACAGGGGGCCACAGCAGAAGCGUUCACGUCGCAGCCCCUGUCAGAUUCAGGUGAAUCUGCGAAUUCUGCUGUAUUUCUC  1.03
49. UAACAGGGGGCCACAGCAGAAGCGUUCACGUCGCAGCCCCUGUCAGAUUCAGGUGAAUCUGCGAAUUCUGCUGUUUAUCUC  1.03
50. UAACAGGGGGCCACAGCAGAAGCGUUCACGUCGCAGCCCCUGUCAGAUUCAGGAGAAUCUGCGAAUUCUGCUGUAUAUCUC  1.04
51. UAACAGGGGGCCACAGCAGAAGCGUUCACGUCGCAGCCCCUGUCAGAUUCAGGUGAAUCUGCGAAUUUUGCUGUAUAUCUC  1.04
52. UAACAGGGGGCCACAGCAGAAGCGUUCACGUCGCAGCCCCUGUCAGAUUCAGGUGAAUCUGCGAAUUCUGCUGUAUAUCUC  1.05
53. UAACAGGGGGCCACAGCAGAAGCGUUCACGUCGCAGCCCCUGUCAGAUUCAGGCGAAUCUGCGAAUUCUGCUGUAUAUCUC  1.07
54. UAACAGGGGGCCACAGCAGAAGCGUUCACGUCGCAGCCCCUGUCAGAUUUUGGUGAAUCUGCGAAUUCUGCUGUAUAUCCC  1.07
55. UAACAGGGGGCCACAGCAGAAGCGUUCACGUCGCAGCCCCUGUCAGAUUCAGGUUAAUCUGCGAAUUCUGCUGUAUAUCUC  1.08
56. UAACAGGGGGCCACAGCAGAAGCGUUCACGUCGCAGCCCCUGUCAGAUUCACGUGAAUCUGCGAAUUCUGCUGUAUAUCUC  1.09
57. UAACAGGGGGCCACAGCAGAAGCGUUCACGUCGCAGCCCCUGUCAGAUUCAGGUGAAUCUGCGAAUUCUGCUGUAUAUCUA  1.1
58. UAACAGGGGGCCACAGCAGAAGCGUUCACGUCGCAGCCCCUGUCAGAUUUUGGUGAAUCUGCGAAUUCUGCUGUAUAACUC  1.12
59. UAACAGGGGGCCACAGCAGAAGCGUUCACGUCGCAGCCCCUGUCAGAUUUUGGUGAAUCUGCGAAUUCUGCCGUAUAUCUC  1.13
60. UAACAGGGGGCCACAGCAGAAGCGUUCACGUCGCAGCCCCUGUCAGAUUCAGGUGAAUCUGCUAAUUCUGCUGUAUAUCUC  1.15
61. UAACAGGGGGCCACAGCAGAAGCGUUCACGUCGCAGCCCCUGUCAGAUUCAGGUGAAUCUGCGAAUUCUGCCGUAUAUCUC  1.15
62. UAACAGGGGGCCACAGCAGAAGCGUUCACGUCGCAGCCCCUGUCAGAUUCAGGUGAAUCUGCGAAUUCUGCUAUAUAUCUC  1.15
63. UAACAGGGGGCCACAGCAGAAGCGUUCACGUCGCAGCCCCUGUCAGAUUCAUGUGAAUCUGCGAAUUCUGCUGUAUAUCUC  1.16
64. UAACAGGGGGCCACAGCAGAAGCGUUCACGUCGCAGCCCCUGUCAGAUUUAGGUGAAUCUGCGAAUUCUGCUGUAUAUCUC  1.17
65. UAACAGGGGGCCACAGCAGAAGCGUUCACGUCGCAGCCCCUGUCAGAUUCAGGUGAAUCUGCGAAUUCUGCUGUAUAUGUC  1.17
66. UAACAGGGGGCCACAGCAGAAGCGUUCACGUCGCAGCCCCUGUCAGAUUCAGGUGAAUCUGCGAAUUCUGCUGUAUAUUUC  1.18
67. UAACAGGGGGCCACAGCAGAAGCGUUCACGUCGCAGCCCCUGUCAGAUUCAAGUGAAUCUGCGAAUUCUGCUGUAUAUCUC  1.21
68. UAACAGGGGGCCACAGCAGAAGCGUUCACGUCGCAGCCCCUGUCAGAUUCAGAUGAAUCUGCGAAUUCUGCUGUAUAUCUC  1.27
